In patent US5876710A, “Compounds and compositions for delivering active agents” (Emisphere Technologies Inc., priority 1997, dated 1999):

Set-up: species or system Rats
Details: rat, in vivo, po, 1 mg/kg

For interferon, the “Mean peak serum interferon concentration” value was 1951±1857.
